Molecular target: Flag-PTEN

B1: Neural Precursor Cell Expressed Developmentally Down-Regulated Protein 4 polypeptide (NEDD4-1) (protein)
chain: MATCAVEVFGLLEDEENSRIVRVRVIAGIGLAKKDILGASDPYVRVTLYDPMNGVLTSVQTKTIKKSLNPKWNEEILFRVHPQQHRLLFEVFDENRLTRDDFLGQVDVPLYPLPTENPRLERPYTFKDFVLHPRSHKSRVKGYLRLKMTYLPKTSGSEDDNAEQAEELEPGWVVLDQPDAACHLQQQQEPSPLPPGWEERQDILGRTYYVNHESRRTQWKRPTPQDNLTDAENGNIQLQAQRAFTTRRQISEETESVDNRESSENWEIIREDEATMYSNQAFPSPPPSSNLDVPTHLAEELNARLTIFGNSAVSQPASSSNHSSRRGSLQAYTFEEQPTLPVLLPTSSGLPPGWEEKQDERGRSYYVDHNSRTTTWTKPTVQATVETSQLTSSQSSAGPQSQASTSDSGQQVTQPSEIEQGFLPKGWEVRHAPNGRPFFIDHNTKTTTWEDPRLKIPAHLRGKTSLDTSNDLGPLPPGWEERTHTDGRIFYINHNIKRTQWEDPRLENVAITGPAVPYSRDYKRKYEFFRRKLKKQNDIPNKFEMKLRRATVLEDSYRRIMGVKRADFLKARLWIEFDGEKGLDYGGVAREWFFLISKEMFNPYYGLFEYSATDNYTLQINPNSGLCNEDHLSYFKFIGRVAGMAVYHGKLLDGFFIRPFYKMMLHKPITLHDMESVDSEYYNSLRWILENDPTELDLRFIIDEELFGQTHQHELKNGGSEIVVTNKNKKEYIYLVIQWRFVNRIQKQMAAFKEGFFELIPQDLIKIFDENELELLMCGLGDVDVNDWREHTKYKNGYSANHQVIQWFWKAVLMMDSEKRIRLLQFVTGTSRVPMNGFAELYGSNGPQSFTVEQWGTPEKLPRAHTCFNRLDLPPYESFEELWDKLQMAIENTQGFDGVD
For B1, the “in vitro ubiquitination of Flag-PTEN (E1, E2, ubiquitin; western blot with anti-PTEN antibody), NEDD4-1 alone” value was “incubation of purified NEDD4-1 alone could not efficiently promote PTEN K27-linked poly-ubiquitination” and the “in vitro ubiquitination of Flag-PTEN, WWP1 and NEDD4-1 both present” value was “in the presence of both WWP1 and NEDD4-1, PTEN was robustly K27-linked poly-ubiquitinated”.

From patent publication US20190374506
